# Test results published in the RNAGym collection of RNA variant scans (doi:10.1093/nar/gkz1192).
# B1: CPEB3 Ribozyme (parent)
# chain: UAACAGGGGGCCACAGCAGAAGCGUUCACGUCGCAGCCCCUGUCAGAUUCUGGUGAAUCUGCGAAUUCUGCUGUAUAUCUC
# Variants of: B1
# Assay: self-cleavage, relative activity (ratio to wild type); higher = more cleavage; in vitro, sequencing
# Procedure, shortened: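 Barcoded CPEB3 ribozyme mutants, produced by rounds of error-prone PCR, self-cleaved while being transcribed with T7 RNA polymerase for 5 hours at 37°C and during a subsequent 15 min DNase I step before EDTA was added. Sequencing of template-switched cDNA on Illumina gave cleaved and total reads, and DNA sequencing assigned barcodes to variants. Each variant's relative activity is its cleaved/total read fraction divided by the unmutated ribozyme's fraction, averaged across three batches. A variant needed a minimum of 5 reads.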
row,Variant,self-cleavage
1,C11U U51C,0.44
2,C11U U51A,0.42
3,C11G G19C,0.48
4,C11U A15C,0.5
5,C11U A15U,0.35
6,C11U A15G,0.4
7,C12A G19A,0.43
8,G10U A65G,0.19
9,C11A U58C,0.43
10,G10U U48A,0.35
11,C11A C23G,0.13
12,C11A C23U,0.06
13,C11G U69C,0.25
14,C11G U69A,0.11
15,C11G U69G,0.14
16,C11U U54C,0.43
17,C11U U54A,0.45
18,C11G U66A,0.49
19,C11G U66C,0.21
20,C11A A13G,0.09
21,C11A A13U,0.34
22,C11A A47U,0.27
23,C11A A47G,0.51
24,G10U U60G,0.31

row,Variant,self-cleavage
1,G10U U60C,0.38
2,C11G G63U,0.66
3,C11A A20G,0.21
4,C12A A35G,0.9
5,C12A A35U,1.27
6,C11G A64U,0.16
7,C11G A64G,0.4
8,C12A C62G,0.24
9,C12A C62A,0.71
10,C11U G42A,0
11,C11A C44A,0.13
12,C12A U60C,0.3
13,C11U A75U,0.43
14,C11U A75G,0.32
15,C11G A57U,0.39
16,C11G A57G,0.43
17,C11G G73C,0.97
18,C11U U72C,0.64
19,C11U U72A,0.42
20,C11U U72G,0.37
21,C12A U31C,1.14
22,C12A U31A,0.65
23,C11U A18G,0.31
24,C11U A18C,0.39

row,Variant,self-cleavage
1,C11U A18U,0.24
2,C12A U49C,0.63
3,C11A C17U,0.09
4,C11U G19U,0.07
5,C11A A28U,0.67
6,C11A A28G,0.1
7,C11U A56G,0.32
8,C11U A56U,0.33
9,C11U C38A,0.06
10,C11G G42U,0.37
11,G10U U51C,0.4
12,G10U U66A,0.18
13,C11A A75G,0.36
14,C11A A75U,0.4
15,C11A A18G,0.28
16,C11A A18C,0.4
17,C11A A18U,0.43
18,C11U U76C,0.43
19,C11G U72C,0.69
20,C11U U80A,0.31
21,C11U U80C,0.45
22,C11U C12U,0.56
23,C12A G24U,0.33
24,C11G A28G,0.24

row,Variant,self-cleavage
1,C11U U74C,0.83
2,C11U U74A,0.96
3,C11U G73A,1.25
4,C11U A45U,0.27
5,C11U A45G,0.2
6,C11A U49G,0.3
7,C11A U49A,0.11
8,C11U A21G,0.28
9,G10U U26A,0.32
10,G10U U26C,0.28
11,C11U C50U,0.4
12,C11A A35U,0.1
13,C11A A35G,0.46
14,C11A C62U,0
15,C11U A20U,0.28
16,C11U A20G,0.43
17,C11U A65U,0.33
18,C11U A65G,0.2
19,C11G A18U,0.39
20,C11G A18G,0.54
21,C11A U54A,0.43
22,C11A U54G,0.21
23,C11A U54C,0.17
24,C11A C81U,0.52

row,Variant,self-cleavage
1,C11A C81G,0.39
2,G10U U72C,0.22
3,C11A A64U,0.06
4,C11A A64G,0.21
5,C11A U69C,0.17
6,G10U C32U,0.21
7,C11G U74A,0.96
8,C11G U74C,0.91
9,C11G U74G,0.84
10,C11U U66C,0.2
11,C12A C68G,0.52
12,C11G U41A,0.25
13,C11G U41C,0.67
14,C11A U31C,0.23
15,C11A U31A,0.3
16,C11A U67C,0.09
17,C11A U67A,0.17
18,C12A A47G,1.17
19,C12A,1.15
20,C11G A15C,0.62
21,C11G A15G,0.58
22,C11G A15U,0.39
23,C11G U51A,0.31
24,C11G U51C,0.41

row,Variant,self-cleavage
1,C11A G33A,0.07
2,G10U G53U,0.24
3,C11U A28U,0.34
4,C11G G30U,0.09
5,C11G U76C,0.61
6,C11G U76A,0.49
7,C12A A65G,0.44
8,C12A A65C,0.32
9,G10U C40U,0.06
10,C11G C17U,0.19
11,C12A C17G,0.16
12,C11U C62U,0.11
13,C11U U31C,0.29
14,C11U U31G,0.23
15,C11U U31A,0.32
16,C12A G52A,1.23
17,C11G C44G,0.32
18,G10U C62U,0.13
19,C11G A20G,0.56
20,C11G A20U,0.12
21,C11G U49G,0.31
22,C11G U49A,0.6
23,C11A U66C,0.12
24,C11U U25C,0.22

row,Variant,self-cleavage
1,C11U U25A,0.38
2,C12A C40A,0.3
3,C12A C40U,0.69
4,G10U U67C,0.12
5,C12A U41C,0.99
6,C12A U41G,0.36
7,G10U U58C,0.34
8,C11U U60C,0.14
9,C11A G24A,0.09
10,C12A U48G,0.2
11,C11G U78G,0.59
12,C11G U78A,0.8
13,C11G U78C,0.43
14,G10U U25C,0.21
15,C11U U48A,0.24
16,C11U U48C,0.31
17,C11U C40U,0.27
18,C12A A45U,0.49
19,C12A A45G,1.04
20,C12A A21G,0.73
21,C11G U54C,0.49
22,C11G U54A,0.28
23,G10U C38G,0.17
